# Several values for one entry are separate records, joined by “and”; a condition that tells them apart may be missing. Equal values may be shown once. Starred links: 1 amine or outer side, 2 acyl side, 3 side chain; linkers in the order of their positions; H or OH if unused. Positions of bridges follow the written chain, without caps; N, C: chain ends. Non-standard residues stand in square brackets, D forms with d. Primed or numbered codes have the meaning given here. Chains are numbered I, II in the order given. No end group written: not given here. *: point of attachment. dLys(PYA)″ = D-lysine N6-(4-pentynoyl) (D-Lys(PYA)), C#CCCC(=O)NCCCC[C@@H](N[*:1])C(=O)[*:2]; TATA = O=C(CC[*:1])N1CN(C(=O)CC[*:2])CN(C(=O)CC[*:3])C1; γGlu = O=C(O)[C@H](CCC(=O)[*:2])N[*:1]; 1Nal = N[C@@H](Cc1cccc2ccccc12)C(=O)O; d1Nal = N[C@H](Cc1cccc2ccccc12)C(=O)O; Palmitoyl = CCCCCCCCCCCCCCCC(=O)*; Hyp = O=C(O)[C@@H]1C[C@@H](O)CN1; hArg = N=C(N)NCCCC[C@H](N)C(=O)O; tBuAla = CC(C)(C)C[C@H](N)C(=O)O; dK(PYA) = not defined here; NMeA = CN[C@@H](C)C(=O)O; Nle = CCCC[C@H](N)C(=O)O; Pent4ynoyl = C#CCCC(=O)*; dNMeA = CN[C@H](C)C(=O)O
# T1: OX40 on Jurkat reporter cells (Promega CS197704) (UniProt P43489 29-277)
# T1 sequence (looked up): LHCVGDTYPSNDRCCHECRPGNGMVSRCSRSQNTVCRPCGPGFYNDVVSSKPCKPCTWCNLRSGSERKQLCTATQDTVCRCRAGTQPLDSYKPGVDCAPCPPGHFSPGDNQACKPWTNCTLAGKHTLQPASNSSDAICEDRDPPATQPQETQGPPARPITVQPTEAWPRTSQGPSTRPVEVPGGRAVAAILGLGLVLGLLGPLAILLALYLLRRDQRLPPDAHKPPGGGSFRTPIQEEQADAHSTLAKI
# B1: BCY12490 (peptide)
# peptide 1: CPXKCMXDWSTPXWC
# peptide 2: CXPEXPYCFADPYXCA
# modifications: BCY8928: Ac-(SEQ ID NO: 11)-A; TATA; linker at dLys(PYA)4; BCY12024: Ac-(SEQ ID NO: 14); TATA; linker at dLys3
# B2: BCY11780 (peptide)
# peptide 1: SDKCSAGWLTMCQXLHLCPSH
# peptide 2: CXPEXPYCFADPYXCA
# modifications: BCY8928: Ac-(SEQ ID NO: 11)-A; TATA; linker at dLys4; BCY10861: Ac-SDK-(SEQ ID NO: 53)-PSH; TATA; linker at Lys(PYA)9
# B3: BCY12967 (peptide)
# peptide 1: CP[1Nal]DCM[hArg]DWSTP[Hyp]WC
# peptide 2: ACLYSPCWHPLNDCAK(Pent4ynoyl)
# modifications: linker I:1-I:5-I:15 via TATA; linker II:2-II:7-II:14 via TATA (inferred); not fully specified (some residues); also: chain 1 N-terminus and chain 2 C-terminal Lys(PYA) joined by N-(acid-PEG3)-N-bis(PEG3-azide) linker
# B4: BCY12760 (peptide)
# peptide 1: CP[1Nal]DCM[hArg]DWSTP[Hyp]WC
# peptide 2: Ac-C[tBuAla]PE[dK](Pent4ynoyl)PYCFAD[NMeA]Y[Nle]C
# modifications: linker I:1-I:5-I:15, II:1-II:8-II:15 via TATA; not fully specified (some residues, bridges); also: chain 1 N-terminus and chain 2 dLys(PYA)4 joined by N-(acid-PEG3)-N-bis(PEG3-azide) linker
# B5: BCY12589 (peptide)
# peptide 1: {Palmitoyl-γGlu-γGlu}-CP[1Nal]KCM[hArg]DWSTP[Hyp]WC
# peptide 2: Ac-C[tBuAla]PE[dK](Pent4ynoyl)PYCFADPY[Nle]CA
# modifications: linker I:1-I:5-I:15, II:1-II:8-II:15 via TATA; not fully specified; also: chain 2 present twice on linker, Nectin-4:CD137 1:2, linker at B5 via N-(acid-PEG3)-N-bis(PEG3-azide), other end not in the chain
# B6: BCY12761 (peptide)
# peptide 1: CP[1Nal]DCM[hArg]DWSTP[Hyp]WC
# peptide 2: Ac-C[tBuAla]PE[dK](Pent4ynoyl)PYCFAD[dNMeA]Y[Nle]C
# modifications: linker I:1-I:5-I:15, II:1-II:8-II:15 via TATA; not fully specified (some residues, bridges); also: chain 1 N-terminus and chain 2 dLys(PYA)4 joined by N-(acid-PEG3)-N-bis(PEG3-azide) linker
# B7: heterotandem bicyclic peptide complex BCY13272 (peptide)
# peptide 1: A[hArg]DC[Hyp]LVNPLCLEP[d1Nal]WTC
# peptide 2: Ac-C[tBuAla]PE[dLys(PYA)″]PYCFADPY[Nle]CA
# modifications: linker I:4-I:11-I:18, II:1-II:8-II:15 via TATA; not fully specified (bridges); also: 1:2 complex: BCY13118 + 2x BCY8928
# notes: also called EphA2/CD137 heterotandem
# B8: BCY13583 (peptide)
# peptide 1: CP[1Nal][dD]CM[hArg]DWSTP[Hyp]WC
# peptide 2: Ac-C[tBuAla]PE[dK(PYA)]PYCFADPY[Nle]CA
# peptide 3: Ac-C[tBuAla]PE[dK(PYA)]PYCFADPY[Nle]CK
# modifications: linker I:1-I:5-I:15 via TATA; linker II:1-II:8-II:15, III:1-III:8-III:15 via TATA (inferred); reading uncertain; also: Alexa Fluor 488 label, site not given here, linker at chain B 5 at chain C 5 to a chain's N-terminus via N-(acid-PEG3)-N-bis(PEG3-azide)
# B9: BCY12487 (peptide)
# peptide 1: CP[1Nal]DCM[hArg]DWSTP[Hyp]WC
# peptide 2: Ac-C[tBuAla]PE[dK](Pent4ynoyl)PYCFAEPY[Nle]C
# modifications: linker I:1-I:5-I:15, II:1-II:8-II:15 via TATA; not fully specified (some residues, bridges); also: chain 1 N-terminus and chain 2 dLys(PYA)4 joined by N-(acid-PEG3)-N-bis(PEG3-azide) linker
# Columns and labels:
# [1] = target: T2, CD137 on Jurkat reporter cells (Promega kit CS196005) (UniProt Q07011 24-255, limits assumed); test: cell-based or functional assay
# T2 sequence (Q07011 24-255 limits assumed): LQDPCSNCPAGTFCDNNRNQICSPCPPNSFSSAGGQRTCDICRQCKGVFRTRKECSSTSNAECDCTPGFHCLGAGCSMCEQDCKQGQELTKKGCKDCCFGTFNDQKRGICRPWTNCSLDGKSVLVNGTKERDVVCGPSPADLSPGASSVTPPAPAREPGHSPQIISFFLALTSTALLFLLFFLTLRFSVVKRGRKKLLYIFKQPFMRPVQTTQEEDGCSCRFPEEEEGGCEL
# [2] = target: T2, CD137 on Jurkat reporter cells (Promega …); test: cell-based or functional assay; remark: listed apart in the source
# [3] = target: T1, OX40 on Jurkat reporter cells (Promega …); test: cell-based or functional assay
# [4] = target: T3, human EphA2 protein (human, UniProt P29317 25-534, limits assumed, biotinylated); test: SPR (Biacore), biotinylated human EphA2 captured on a streptavidin chip, BCY13272 as analyte, 1:1 fit
# T3 construct: Construct not described; also called EphA2 (human)
# T3 sequence (P29317 25-534 limits assumed): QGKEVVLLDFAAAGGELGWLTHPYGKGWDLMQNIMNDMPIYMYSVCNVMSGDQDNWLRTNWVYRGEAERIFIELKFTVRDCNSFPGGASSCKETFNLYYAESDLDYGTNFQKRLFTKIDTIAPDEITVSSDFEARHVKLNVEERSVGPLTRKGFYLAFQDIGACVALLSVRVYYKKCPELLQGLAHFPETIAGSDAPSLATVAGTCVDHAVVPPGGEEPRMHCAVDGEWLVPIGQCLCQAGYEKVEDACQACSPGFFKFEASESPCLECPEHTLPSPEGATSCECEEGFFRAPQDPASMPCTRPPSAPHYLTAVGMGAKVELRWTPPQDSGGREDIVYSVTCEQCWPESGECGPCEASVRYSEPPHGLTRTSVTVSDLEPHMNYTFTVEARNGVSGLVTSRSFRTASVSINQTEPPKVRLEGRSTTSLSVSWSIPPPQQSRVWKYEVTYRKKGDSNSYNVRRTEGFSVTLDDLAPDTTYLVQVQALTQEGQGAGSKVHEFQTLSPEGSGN
# [5] = target: T3, human EphA2 protein; test: SPR (Biacore T200), biotinylated EphA2 captured on streptavidin chip, 25° C.
# [6] = target: T4, human CD137 extracellular domain (human, UniProt Q07011 24-186, biotinylated where captured on the streptavidin chip); test: SPR (Biacore), biotinylated human CD137 captured on a streptavidin chip, BCY13272 as analyte, 1:1 fit; the text calls the off rate very slow (avidity from two CD137 bicycles)
# T4 construct: extracellular domain; Section 17 says only 'Recombinant human CD137 (R&D systems)'; also called CD137 (human); Recombinant human CD137 (R&D systems)
# T4 sequence (Q07011 24-186): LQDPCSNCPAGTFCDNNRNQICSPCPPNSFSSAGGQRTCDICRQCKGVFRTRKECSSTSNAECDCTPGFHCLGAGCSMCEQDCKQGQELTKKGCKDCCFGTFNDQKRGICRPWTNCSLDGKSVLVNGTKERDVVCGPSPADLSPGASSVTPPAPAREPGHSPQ
# [7] = target: T4, human CD137 extracellular domain; test: SPR (Biacore), biotinylated human CD137 captured on a streptavidin chip, BCY13272 as analyte, 1:1 fit; avidity from two CD137 bicycles
# [8] = target: T2, CD137 on Jurkat reporter cells (Promega …); test: cell-based or functional assay; remark: listed apart in the source
# [9] = target: T4, human CD137 extracellular domain; test: SPR (Biacore), biotinylated human CD137 captured on a streptavidin chip, BCY13272 as analyte, 1:1 fit; the text says the reported KD may be an overestimation (avidity)
# [10] = target: T2, CD137 on Jurkat reporter cells (Promega …); test: cell-based or functional assay; remark: listed apart in the source
binder,measurement,setting,value
B1,"EC50 (nM), HT1376 co-culture",[1],0.23 nM
same,"Emax (fold induction over background), HT1376",[1],70 fold over background
B2,"EC50 (nM), RKO co-culture",[2],1.9 nM
same,"Fold Induction over background, RKO co-culture",[2],13 fold
B3,"EC50 (nM), Promega OX40 cell-activity assay in co-culture with tumor cells",[3],0.83 nM
B4,"EC50 (nM), HT1376 co-culture",[1],1.8 nM
same,"Emax (fold induction over background), HT1376",[1],76 fold over background
B5,"EC50 (nM), HT1376 co-culture",[1],0.44 nM
same,"Emax (fold induction over background), HT1376",[1],79 fold over background
B6,"EC50 (nM), HT1376 co-culture",[1],0.37 nM
same,"Emax (fold induction over background), HT1376",[1],76 fold over background
B7,koff,[4],0.00102 s⁻¹
same,kon,[4],502000 M⁻¹ s⁻¹
same,Kd,[5],2000 pM
same,koff,[6],≤ 1e-05 s⁻¹
same,kon,[7],302000 M⁻¹ s⁻¹
same,"EC50 (nM), A549 co-culture",[8],0.147 nM and 0.107 nM and 0.132 nM
same,"Geo mean EC50/cell line, A549",[8],127 pM
same,"Geo mean EC50/cell line, HT-29",[8],279 pM
same,"Geo mean EC50/cell line, PC-3",[8],117 pM
same,Kd,[9],≤ 33.1 pM
B8,"Arithmetic mean EC50 (nM), HT1376 co-culture",[10],1.7 nM
same,"Arithmetic mean EC50 (nM), MDA-MB-468 co-culture",[10],0.84 nM
same,"EC50 (nM), HT1376 co-culture",[1],1.7 nM
same,"Emax (fold induction over background), HT1376",[1],63 fold over background
B9,"EC50 (nM), HT1376 co-culture",[1],13 nM
same,"Emax (fold induction over background), HT1376",[1],12 fold over background

# Reference: patent US20230129258A1 (Bicycle, published 2023)
